The test addresses T1, FZD4 recombinant extracellular domain, Fc fusion (FZD-Fc) (UniProt Q9ULV1 37-180).
T1 construct: extracellular domain; also called FZD4 ECD; not shown: Fc part of the FZD-Fc protein
T1 sequence (looked up): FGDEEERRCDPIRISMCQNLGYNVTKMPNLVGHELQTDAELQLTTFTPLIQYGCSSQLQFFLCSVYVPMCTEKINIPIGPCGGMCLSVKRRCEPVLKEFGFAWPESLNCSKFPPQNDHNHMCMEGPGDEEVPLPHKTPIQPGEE
The test can be described thus: BLI (Octet), FZD-Fc captured on AHQ sensors, agonist in solution; apparent affinity. A general note: Biolayer interferometry detects binding as a change in optical thickness at a sensor tip.

Residue numbers refer to the chain shown, from its start.

These results are taken from patent US20250270332A1 (ANTLERA THERAPEUTICS, published 2025).

B1: FZD4 Agonist ANT21 (bispecific antibody)
heavy 1: EVQLVESGGGLVQPGGSLRLSCAASGFNFSSSSIHWVRQAPGKGLEWVASISSSYGYTYYADSVKGRFTISADTSKNTAYLQMNSLRAEDTAVYYCARGGSGVSHYGSVYYSWWALDYWGQGTLVTVSSGGGGSDIQMTQSPSSLSASVGDRVTITCRASQSVSSAVAWYQQKPGKAPKLLIYSASSLYSGVPSRFSGSRSGTDFTLTISSLQPEDFATYYCQQYWAYYSPITFGQGTKVEIKGGGGSGGGGSEPKTSDKTHTCPPCPAPELLGGPSVFLFPPKPKDTLMISRTPEVTCVVVAVSHEDPEVKFNWYVDGVEVHNAKTKPREEQYGSTYRVVSVLTVLHQDWLNGKEYKCKVSNKALPAPIEKTISKAKGQPREPMVFDLPPSREEMTKNQVSLWCMVKGFYPSDIAVEWESNGQPENNYKTTPPVLDSDGSFFLYSKLTVDKSRWQQGNVFSCSVMHEALHNHYTQKSLSLSPGKGGGSGGGSGGGSGGGSGSTGEVQLVESGGGLVQPGGSLRLSCAASGFTLSSYSMHWVRQAPGKGLEWVAYISSYYGYTYYADSVKGRFTISADTSKNTAYLQMNSLRAEDTAVYYCARPAPGHWGFDYWGQGTLVTVSSASTKGPSVFPLAPSSKSTSGGTAALGCLVKDYFPEPVTVSWNSGALTSGVHTFPAVLQSSGLYSLSSVVTVPSSSLGTQTYICNVNHKPSNTKVDKKVEPKSCDKTHT
heavy 2: EVQLVESGGGLVQPGGSLRLSCAASGFNFSSSSIHWVRQAPGKGLEWVASISSSYGYTYYADSVKGRFTISADTSKNTAYLQMNSLRAEDTAVYYCARSWAMDYWGQGTLVTVSSGGGGSDIQMTQSPSSLSASVGDRVTITCRASQSVSSAVAWYQQKPGKAPKLLIYSASSLYSGVPSRFSGSRSGTDFTLTISSLQPEDFATYYCQQSSYSLITFGQGTKVEIKGGGGSGGGGSEPKSSDKTHTCPPCPAPELLGGPSVFLFPPKPKDTLMISRTPEVTCVVVAVSHEDPEVKFNWYVDGVEVHNAKTKPREEQYGSTYRVVSVLTVLHQDWLNGKEYKCKVSNKALPAPIEKTISKAKGQPREPQVYTLPPIRELMTSNQVSLSCAVKGFYPSDIAVEWESNGQPENNYKTTPPVLDSDGSFFLVSKLTVDKSRWQQGNVFSCSVMHEALHNHYTQKSLSLSPGKGGGSGGGSGGGSGGGSGSTGEVQLVESGGGLVQPGGSLRLSCAASGFTLSSYSMHWVRQAPGKGLEWVAYISSYYGYTYYADSVKGRFTISADTSKNTAYLQMNSLRAEDTAVYYCARPAPGHWGFDYWGQGTLVTVSSASTKGPSVFPLAPSSKSTSGGTAALGCLVKDYFPEPVTVSWNSGALTSGVHTFPAVLQSSGLYSLSSVVTVPSSSLGTQTYICNVNHKPSNTKVDKKVEPKSCDKTHT
light: DIQMTQSPSSLSASVGDRVTITCRASQSVSSAVAWYQQKPGKAPKLLIYSASSLYSGVPSRFSGSRSGTDFTLTISSLQPEDFATYYCQQWYYAPITFGQGTKVEIKRTVAAPSVFIFPPSDEQLKSGTASVVCLLNNFYPREAKVQWKVDNALQSGNSQESVTEQDSKDSTYSLSSTLTLSKADYEKHKVYACEVTHQGLSSPVTKSFNRGEC
notes: Diabody-Fc-Fab format
Take B1: the Kd was found to be 2.2 nM.

B2: FZD4 Agonist ANT39 (bispecific antibody, human IgG1, kappa, N297G)
heavy 1: EVQLVESGGGLVQPGGSLRLSCAASGFDFTAYAMHWVRQAPGKGLEWVASIYPSGGYTAYADSVKGRFTISADTSKNTAYLQMNSLRAEDTAVYYCARRSYYFALDYWGQGTLVTVSSGGGGSDIQMTQSPSSLSASVGDRVTITCRASQSVSSAVAWYQQKPGKAPKLLIYSASSLYSGVPSRFSGSRSGTDFTLTISSLQPEDFATYYCQQYWAYYSPITFGQGTKVEIKGGGGSGGGGSEPKTSDKTHTCPPCPAPELLGGPSVFLFPPKPKDTLMISRTPEVTCVVVAVSHEDPEVKFNWYVDGVEVHNAKTKPREEQYGSTYRVVSVLTVLHQDWLNGKEYKCKVSNKALPAPIEKTISKAKGQPREPMVFDLPPSREEMTKNQVSLWCMVKGFYPSDIAVEWESNGQPENNYKTTPPVLDSDGSFFLYSKLTVDKSRWQQGNVFSCSVMHEALHNHYTQKSLSLSPGKGGGSGGGSGGGSGGGSGSTGEVQLVESGGGLVQPGGSLRLSCAASGFTLSSYSMHWVRQAPGKGLEWVAYISSYDSITDYADSVKGRFTISADTSKNTAYLQMNSLRAEDTAVYYCARPAVGHMAFDYWGQGTLVTVSSASTKGPSVFPLAPSSKSTSGGTAALGCLVKDYFPEPVTVSWNSGALTSGVHTFPAVLQSSGLYSLSSVVTVPSSSLGTQTYICNVNHKPSNTKVDKKVEPKSCDKTHT
heavy 2: EVQLVESGGGLVQPGGSLRLSCAASGFDFSSSSIHWVRQAPGKGLEWVASISSSYGYTYYADSVKGRFTISADTSKNTAYLQMNSLRAEDTAVYYCARSWAMDYWGQGTLVTVSSGGGGSDIQMTQSPSSLSASVGDRVTITCRASQSVSSAVAWYQQKPGKAPKLLIYSASDLYSGVPSRFSGSRSGTDFTLTISSLQPEDFATYYCQQYAGAGLITFGQGTKVEIKGGGGSGGGGSEPKSSDKTHTCPPCPAPELLGGPSVFLFPPKPKDTLMISRTPEVTCVVVAVSHEDPEVKFNWYVDGVEVHNAKTKPREEQYGSTYRVVSVLTVLHQDWLNGKEYKCKVSNKALPAPIEKTISKAKGQPREPQVYTLPPIRELMTSNQVSLSCAVKGFYPSDIAVEWESNGQPENNYKTTPPVLDSDGSFFLVSKLTVDKSRWQQGNVFSCSVMHEALHNHYTQKSLSLSPGKGGGSGGGSGGGSGGGSGSTGEVQLVESGGGLVQPGGSLRLSCAASGFTLSSYSMHWVRQAPGKGLEWVAYISSYDSITDYADSVKGRFTISADTSKNTAYLQMNSLRAEDTAVYYCARPAVGHMAFDYWGQGTLVTVSSASTKGPSVFPLAPSSKSTSGGTAALGCLVKDYFPEPVTVSWNSGALTSGVHTFPAVLQSSGLYSLSSVVTVPSSSLGTQTYICNVNHKPSNTKVDKKVEPKSCDKTHT
light: B1 light with Y93N
notes: Diabody-Fc-Fab format, DANG Fc
As to B2, the Kd was determined as 0.3 nM.
